Experimental data as given in patent publication US20140087995A1 (published 2014).
Numbered stars: 1 amine (or outer) side, 2 acyl side, 3 side chain; on linkers, the order of the positions; unused ones are H or OH. Bridge positions count the residues as written; N and C are the ends. Side chains are listed from the residue outwards. Ends that are not written are not given here. * marks the point of attachment. C20 diacid = O=C(O)CCCCCCCCCCCCCCCCCCC(=O)*; γGlu = O=C(O)[C@H](CCC(=O)[*:2])N[*:1]; AEEA = NCCOCCOCC(=O)O

T1: rat calcitonin receptor (rat, UniProt P32214 25-516)
T1 construct: whole, on cells; Cell membranes of transiently transfected BHK tk'ts 13 cells (Assay VIII); also called rCTR; rCT
T1 sequence (looked up): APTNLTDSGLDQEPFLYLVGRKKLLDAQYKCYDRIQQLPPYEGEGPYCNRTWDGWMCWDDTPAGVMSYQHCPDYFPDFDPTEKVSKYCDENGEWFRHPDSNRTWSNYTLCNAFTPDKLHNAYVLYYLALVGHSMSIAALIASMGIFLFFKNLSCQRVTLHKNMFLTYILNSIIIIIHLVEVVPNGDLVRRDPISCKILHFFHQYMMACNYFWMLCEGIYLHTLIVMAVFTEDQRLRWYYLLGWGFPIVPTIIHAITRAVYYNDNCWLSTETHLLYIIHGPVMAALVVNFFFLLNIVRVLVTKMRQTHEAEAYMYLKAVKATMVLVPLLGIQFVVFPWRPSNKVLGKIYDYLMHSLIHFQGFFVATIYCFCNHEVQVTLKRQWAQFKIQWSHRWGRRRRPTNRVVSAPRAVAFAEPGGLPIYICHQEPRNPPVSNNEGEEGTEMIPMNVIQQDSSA

T2: human calcitonin receptor (human, UniProt P30988 25-474)
T2 construct: whole, on cells; Cell membranes of a stably transfected BHK cell line (Assay VII); also called hCTR; hCT
T2 sequence (looked up): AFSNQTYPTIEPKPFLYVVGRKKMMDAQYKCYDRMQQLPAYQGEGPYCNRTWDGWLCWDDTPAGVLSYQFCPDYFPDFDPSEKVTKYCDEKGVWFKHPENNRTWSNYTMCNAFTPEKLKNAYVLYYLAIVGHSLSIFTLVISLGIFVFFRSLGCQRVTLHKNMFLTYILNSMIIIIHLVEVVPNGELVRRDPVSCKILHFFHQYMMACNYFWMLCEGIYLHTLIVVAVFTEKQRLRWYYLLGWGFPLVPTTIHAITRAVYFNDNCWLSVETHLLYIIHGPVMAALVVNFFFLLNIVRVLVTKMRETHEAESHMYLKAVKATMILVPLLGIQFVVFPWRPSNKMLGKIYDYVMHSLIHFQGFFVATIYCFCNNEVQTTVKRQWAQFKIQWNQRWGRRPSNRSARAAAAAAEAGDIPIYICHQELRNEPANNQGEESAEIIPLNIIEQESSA

T3: rat amylin receptor (rat calcitonin receptor + rat RAMP 3) (rat, UniProt P32214 25-516; Q9JJ73 23-147)
T3 construct: whole, on cells; Cell membranes of transiently transfected BHK tk'ts 13 cells (Assay VI); also called rAmylin-R; rat amylin 3(a) receptor
T3 sequence (looked up) 1: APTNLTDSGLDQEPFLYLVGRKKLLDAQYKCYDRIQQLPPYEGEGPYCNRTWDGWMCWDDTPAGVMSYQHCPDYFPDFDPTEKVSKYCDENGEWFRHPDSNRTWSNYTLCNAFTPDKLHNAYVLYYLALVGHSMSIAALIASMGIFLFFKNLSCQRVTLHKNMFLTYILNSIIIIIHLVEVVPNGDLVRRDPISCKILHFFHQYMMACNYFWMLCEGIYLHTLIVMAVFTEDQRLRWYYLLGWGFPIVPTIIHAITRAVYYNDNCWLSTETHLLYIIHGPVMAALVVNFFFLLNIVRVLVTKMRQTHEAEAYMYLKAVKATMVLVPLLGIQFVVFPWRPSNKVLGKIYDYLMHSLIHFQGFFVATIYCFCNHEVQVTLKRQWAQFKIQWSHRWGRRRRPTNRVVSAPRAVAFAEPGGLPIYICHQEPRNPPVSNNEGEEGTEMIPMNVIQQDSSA
T3 sequence (looked up) 2: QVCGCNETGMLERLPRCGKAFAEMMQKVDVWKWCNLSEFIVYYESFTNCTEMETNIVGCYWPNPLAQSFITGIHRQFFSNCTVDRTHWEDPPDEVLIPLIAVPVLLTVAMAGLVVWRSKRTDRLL


Assays:
rat calcitonin receptor [1] = target: T1, rat calcitonin receptor; experiment: SPA competition vs 125I-calcitonin, membranes with rat CTR (Assay VIII)
rat calcitonin receptor [2] = target: T1, rat calcitonin receptor; experiment: ratio IC50 rat calcitonin receptor / IC50 rat amylin receptor
[3] = target: T2, human calcitonin receptor; experiment: ratio IC50 human calcitonin receptor / IC50 human amylin receptor
How it was run: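 Competition binding by SPA with cell membranes (35 ng/μL) and SPA beads in 50 mM Hepes pH 7.4 with 1 mM CaCl2, 5 mM MgCl2, 0.1% OA and 0.02% Tween20. Incubated 120 min at 25 °C with shaking, then counted.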

[4] = target: T3, rat amylin receptor (rat calcitonin …); experiment: SPA competition vs 125I-rat amylin, membranes with rat CTR + rat RAMP3 (Assay VI)

| IC50 (rat calcitonin receptor [1]) [nM] | Ratio rCT/rAmylin binding (rat calcitonin receptor [2]) | Ratio hCT/hAmylin binding [3] | IC50 [4] [nM] | Binder |
| --- | --- | --- | --- | --- |
| 17.1 | 84.3 | 44.9 | 0.203 | {C20 diacid-γGlu}-GRCNTATCATQRLANFLRHSSPNFGAIPSSTNVGSHTY-NH2 (disulfide 3-8; SMILES CC[C@H](C)[C@H](NC(=O)[C@H](C)NC(=O)CNC(=O)[C@H](Cc1ccccc1)NC(=O)[C@H](CC(N)=O)NC(=O)[C@@H]1CCCN1C(=O)[C@H](CO)NC(=O)[C@H](CO)NC(=O)[C@H](Cc1c[nH]cn1)NC(=O)[C@H](CCCNC(=N)N)NC(=O)[C@H](CC(C)C)NC(=O)[C@H](Cc1ccccc1)NC(=O)[C@H](CC(N)=O)NC(=O)[C@H](C)NC(=O)[C@H](CC(C)C)NC(=O)[C@H](CCCNC(=N)N)NC(=O)[C@H](CCC(N)=O)NC(=O)[C@@H](NC(=O)[C@H](C)NC(=O)[C@@H]1CSSC[C@H](NC(=O)[C@H](CCCNC(=N)N)NC(=O)CNC(=O)CC[C@H](NC(=O)CCCCCCCCCCCCCCCCCCC(=O)O)C(=O)O)C(=O)N[C@@H](CC(N)=O)C(=O)N[C@@H]([C@@H](C)O)C(=O)N[C@@H](C)C(=O)N[C@@H]([C@@H](C)O)C(=O)N1)[C@@H](C)O)C(=O)N1CCC[C@H]1C(=O)N[C@@H](CO)C(=O)N[C@@H](CO)C(=O)N[C@H](C(=O)N[C@@H](CC(N)=O)C(=O)N[C@H](C(=O)NCC(=O)N[C@@H](CO)C(=O)N[C@@H](Cc1c[nH]cn1)C(=O)N[C@H](C(=O)N[C@@H](Cc1ccc(O)cc1)C(N)=O)[C@@H](C)O)C(C)C)[C@@H](C)O, Acylated analogue of human amylin, extended by one residue at the N-terminus; also called compound 47) |
| 74.1 | 54 | 49.9 | 1.37 | K([AEEA-γGlu-C20 diacid])CNTATCATQRLANFLRHSSPNFGAIPSSTNVGSNTY-NH2 (disulfide 2-7; N-terminus assumed; SMILES CC[C@H](C)[C@H](NC(=O)[C@H](C)NC(=O)CNC(=O)[C@H](Cc1ccccc1)NC(=O)[C@H](CC(N)=O)NC(=O)[C@@H]1CCCN1C(=O)[C@H](CO)NC(=O)[C@H](CO)NC(=O)[C@H](Cc1c[nH]cn1)NC(=O)[C@H](CCCNC(=N)N)NC(=O)[C@H](CC(C)C)NC(=O)[C@H](Cc1ccccc1)NC(=O)[C@H](CC(N)=O)NC(=O)[C@H](C)NC(=O)[C@H](CC(C)C)NC(=O)[C@H](CCCNC(=N)N)NC(=O)[C@H](CCC(N)=O)NC(=O)[C@@H](NC(=O)[C@H](C)NC(=O)[C@@H]1CSSC[C@H](NC(=O)[C@@H](N)CCCCNC(=O)COCCOCCNC(=O)CC[C@H](NC(=O)CCCCCCCCCCCCCCCCCCC(=O)O)C(=O)O)C(=O)N[C@@H](CC(N)=O)C(=O)N[C@@H]([C@@H](C)O)C(=O)N[C@@H](C)C(=O)N[C@@H]([C@@H](C)O)C(=O)N1)[C@@H](C)O)C(=O)N1CCC[C@H]1C(=O)N[C@@H](CO)C(=O)N[C@@H](CO)C(=O)N[C@H](C(=O)N[C@@H](CC(N)=O)C(=O)N[C@H](C(=O)NCC(=O)N[C@@H](CO)C(=O)N[C@@H](CC(N)=O)C(=O)N[C@H](C(=O)N[C@@H](Cc1ccc(O)cc1)C(N)=O)[C@@H](C)O)C(C)C)[C@@H](C)O, Acylated analogue of human amylin; also called compound 41) |
| 350 | 116 | 90 | 3.01 | KCNTATCATQRLANFLRHSSPNFGAIPSSTNVGSNTY (C20 diacid-gGlu-2xOEG on alpha-amino of the N-terminal residue; Cys2-Cys7 disulfide; C-terminal amide (as human amylin), Acylated analogue of human amylin; also called compound 24) |
| 7.6 | 69.1 | 34.7 | 0.11 | K([AEEA-C20 diacid])CNTATCATQRLANFLRHSSPNFGAIPSSTNVGSNTY-NH2 (disulfide 2-7; N-terminus assumed; SMILES CC[C@H](C)[C@H](NC(=O)[C@H](C)NC(=O)CNC(=O)[C@H](Cc1ccccc1)NC(=O)[C@H](CC(N)=O)NC(=O)[C@@H]1CCCN1C(=O)[C@H](CO)NC(=O)[C@H](CO)NC(=O)[C@H](Cc1c[nH]cn1)NC(=O)[C@H](CCCNC(=N)N)NC(=O)[C@H](CC(C)C)NC(=O)[C@H](Cc1ccccc1)NC(=O)[C@H](CC(N)=O)NC(=O)[C@H](C)NC(=O)[C@H](CC(C)C)NC(=O)[C@H](CCCNC(=N)N)NC(=O)[C@H](CCC(N)=O)NC(=O)[C@@H](NC(=O)[C@H](C)NC(=O)[C@@H]1CSSC[C@H](NC(=O)[C@@H](N)CCCCNC(=O)COCCOCCNC(=O)CCCCCCCCCCCCCCCCCCC(=O)O)C(=O)N[C@@H](CC(N)=O)C(=O)N[C@@H]([C@@H](C)O)C(=O)N[C@@H](C)C(=O)N[C@@H]([C@@H](C)O)C(=O)N1)[C@@H](C)O)C(=O)N1CCC[C@H]1C(=O)N[C@@H](CO)C(=O)N[C@@H](CO)C(=O)N[C@H](C(=O)N[C@@H](CC(N)=O)C(=O)N[C@H](C(=O)NCC(=O)N[C@@H](CO)C(=O)N[C@@H](CC(N)=O)C(=O)N[C@H](C(=O)N[C@@H](Cc1ccc(O)cc1)C(N)=O)[C@@H](C)O)C(C)C)[C@@H](C)O, Acylated analogue of human amylin; also called compound 43) [N^ε1-[2-[2-[2-(19-carboxynonadecanoylamino)ethoxy]ethoxy]acetyl]-[Arg17,Pro21,Pro27]-h-amylin] |
| 51.5 | 21.7 | 20 | 2.37 | {C20 diacid-γGlu}-KCNTATCATQRLAEFLRHSSPNFGPILPPTNVGSNTY-NH2 (disulfide 2-7; SMILES CC[C@H](C)[C@H](NC(=O)[C@@H]1CCCN1C(=O)CNC(=O)[C@H](Cc1ccccc1)NC(=O)[C@H](CC(N)=O)NC(=O)[C@@H]1CCCN1C(=O)[C@H](CO)NC(=O)[C@H](CO)NC(=O)[C@H](Cc1c[nH]cn1)NC(=O)[C@H](CCCNC(=N)N)NC(=O)[C@H](CC(C)C)NC(=O)[C@H](Cc1ccccc1)NC(=O)[C@H](CCC(=O)O)NC(=O)[C@H](C)NC(=O)[C@H](CC(C)C)NC(=O)[C@H](CCCNC(=N)N)NC(=O)[C@H](CCC(N)=O)NC(=O)[C@@H](NC(=O)[C@H](C)NC(=O)[C@@H]1CSSC[C@H](NC(=O)[C@H](CCCCN)NC(=O)CC[C@H](NC(=O)CCCCCCCCCCCCCCCCCCC(=O)O)C(=O)O)C(=O)N[C@@H](CC(N)=O)C(=O)N[C@@H]([C@@H](C)O)C(=O)N[C@@H](C)C(=O)N[C@@H]([C@@H](C)O)C(=O)N1)[C@@H](C)O)C(=O)N[C@@H](CC(C)C)C(=O)N1CCC[C@H]1C(=O)N1CCC[C@H]1C(=O)N[C@H](C(=O)N[C@@H](CC(N)=O)C(=O)N[C@H](C(=O)NCC(=O)N[C@@H](CO)C(=O)N[C@@H](CC(N)=O)C(=O)N[C@H](C(=O)N[C@@H](Cc1ccc(O)cc1)C(N)=O)[C@@H](C)O)C(C)C)[C@@H](C)O, Acylated analogue of human amylin; also called compound 6) |
